# Article PMC9554411
# Target: MERS-CoV spike glycoprotein ectodomain (EMC strain, spike residues 1-1290), trimer (MERS-CoV (EMC strain)) (UniProt K0BRG7)
# Test: cryo-EM structure
substance,measurement,value
"MERS-CoV spike glycoprotein ectodomain (EMC strain, spike residues 1-1290), trimer (from UniProt K0BRG7 18-1290) (domain or fragment)",stoichiometry N,3
